What was measured:
[1] = biological target: proPSA (precursor, zymogen form of PSA), recombinant, P07288
[2] = biological target: prostate specific antigen (PSA), mature form
prostate specific antigen (PSA), mature form, sequence (chain, as listed by the source): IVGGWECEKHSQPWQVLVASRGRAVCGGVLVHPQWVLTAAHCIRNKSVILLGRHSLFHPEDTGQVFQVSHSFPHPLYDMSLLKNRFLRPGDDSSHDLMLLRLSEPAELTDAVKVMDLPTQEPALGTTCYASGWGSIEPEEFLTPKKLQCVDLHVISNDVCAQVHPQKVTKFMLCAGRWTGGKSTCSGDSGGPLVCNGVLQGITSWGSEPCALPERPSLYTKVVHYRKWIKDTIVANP

proPSA (precursor, zymogen form of PSA), recombinant, P07288, sequence (P07288 18-261): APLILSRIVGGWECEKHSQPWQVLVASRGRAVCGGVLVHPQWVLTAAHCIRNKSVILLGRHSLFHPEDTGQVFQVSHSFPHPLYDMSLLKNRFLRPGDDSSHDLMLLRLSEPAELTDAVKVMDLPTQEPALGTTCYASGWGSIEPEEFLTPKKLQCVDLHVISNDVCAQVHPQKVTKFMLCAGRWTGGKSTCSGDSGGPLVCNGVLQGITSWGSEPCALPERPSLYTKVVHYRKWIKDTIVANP

B1: lysyl endopeptidase C (Wako Chemicals USA) (protein)
chain: GVSGSCNIDVVCPEGDGRRDIIRAVGAYSKSGTLACTGSLVNNTANDRKMYFLTAHHCGMGTASTAASIVVYWNYQNSTCRAPNTPASGANGDGSMSQTQSGSTVKATYATSDFTLLELNNAANPAFNLFWAGWDRRDQNYPGAIAIHHPNVAEKRISNSTSPTSFVAWGGGAGTTHLNVQWQPSGGVTEPGSSGSPIYSPEKRVLGQLHGGPSSCSATGTNRSDQYGRVFTSWTGGGAAASRLSDWLDPASTGAQFIDGLDSGGGTP
B1 was tested, and the “initial rate of cleavage of the Lys182 in pPSA” value [1] was 8% per minute, the “rate of cleavage at Lys145 in pPSA” value [1] was “about 0.6% per minute” and the “initial rate of cleavage at Lys182” value [2] was 12% per minute. The “percent of PSA cleaved at Lys182 after 30 minutes of incubation” value [2] was 100% of the PSA had been cleaved at Lys182, the “rate of cleavage at Lys145” value [2] was 0.3% per minute and the “relative rate of cleavage, Lys182 against Lys145” value [2] was “Lys182 is cleaved approximately 30 times more rapidly than Lys145 by LysC”.

Reference: US20030166036
